What is called Kd is the constant that tells how readily two partners part at equilibrium.

From patent US20090281024A1 (RAPTOR PHARMACEUTICALS, published 2009) come the findings set out here.

Test [1] concerns the target T1, RAP d3 E251K, K256A, K270E (human, UniProt P30533 235-353).
T1 construct: range 201-319 (mature RAP numbering); Forward mutant of m1; same construct; also called RAP E251K, K256A, K270E; not shown: N-terminal hexahistidine and S-peptide tags of pET30(+)a
T1 sequence (looked up): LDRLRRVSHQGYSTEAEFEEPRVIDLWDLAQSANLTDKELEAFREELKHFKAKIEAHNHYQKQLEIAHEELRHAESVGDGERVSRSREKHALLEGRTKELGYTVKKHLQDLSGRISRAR
The test is described as follows: solid-phase assay, coated CR protein. As for the experimental part:
(§1) Wells were washed with TBSTC and bound ligands detected with polyclonal anti-RAP (BP41/42, 1:1,000, BioMarin). Excess primary antibody was removed and wells washed before incubation with the secondary antibody, HRP-conjugated goat anti rabbit IgG (Bio-Rad). After washing, TMB substrate solutions (Bio-Rad) were added to detect HRP. Color development was stopped with 1N HCl. Absorption at 450 nm was measured with a microplate spectrophotometer (Molecular Devices). Data were plotted and Kd values derived by non-linear regression with the assumption of single-site binding (GraphPad Prism).
(§2) Next, the binding of RAP d3 and MegaRAP1 d3 proteins to LRP1 CR3-5 and LRP2 CR89 was assessed. […] In all cases, 10 mM EGTA prevented binding of both RAP d3 and MegaRAP1 d3 to CR proteins. Since calcium was the only divalent metal ion present in the binding buffer, this observation is consistent with both RAP d3 and MegaRAP1 d3 binding to calcium-loaded CR pairs. […] Therefore, wild-type RAP d3 and MegaRAP1 d3 have inverted binding preferences for these two receptor fragments.

The target in test [2] is T2, MegaRAP1 d3 (human, UniProt P30533 235-353).
T2 construct: range 201-319 (mature RAP numbering); d3 of the variant selected on LRP2 CR89; also called RAPv2A d3; RAP v2A; not shown: N-terminal hexahistidine and S-peptide tags of pET30(+)a
T2 sequence (looked up): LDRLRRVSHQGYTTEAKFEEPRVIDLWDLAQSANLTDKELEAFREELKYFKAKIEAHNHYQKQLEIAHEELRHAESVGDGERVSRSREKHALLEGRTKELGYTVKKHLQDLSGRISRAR
The test is described as follows: solid-phase assay, coated CR protein. As for the experimental part:
as §1, §2

Test [3] addresses T2, MegaRAP1 d3. The experiment in a line: solid-phase assay, coated CR protein (same value as Table 1).
The target of another test is T3, RAP d3 H249Y (human, UniProt P30533 235-353).
T3 construct: range 201-319 (mature RAP numbering); Forward mutant of m1; same construct; also called RAP H249Y; not shown: N-terminal hexahistidine and S-peptide tags of pET30(+)a
T3 sequence (looked up): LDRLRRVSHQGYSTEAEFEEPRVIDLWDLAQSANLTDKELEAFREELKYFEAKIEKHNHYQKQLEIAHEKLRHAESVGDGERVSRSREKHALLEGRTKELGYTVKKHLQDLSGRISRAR
The test is described as follows: solid-phase binding assay: LRP2 CR89 coated on the plate, d3 ligand in solution, anti-RAP detection, absorbance. Here is the method: (§3) Solid phase binding assays—Purified, refolded CR protein (1 μg) was bound to Nunc Maxisorp™ 96-well plates in TBS pH 8 supplemented with 5 mM CaCl₂ (TBSC) overnight at 4° C. Wells were washed with TBSC and then blocked with TBSC containing 2% bovine serum albumin (BSA). RAP ligands were then incubated with the immobilized receptor at a range of concentrations for 2 hours in the above blocking buffer supplemented with 0.05% Tween-20 at room temperature. Control wells contained no added ligand. As an additional control, to determine whether the absence of calcium affected binding, 10 mM EGTA was included in the incubation medium for some samples. Wells were washed with TBSTC and bound ligands detected with polyclonal anti-RAP (BP41/42, 1:1,000, BioMarin). Excess primary antibody was removed and wells washed before incubation with the secondary antibody, HRP-conjugated goat anti rabbit IgG (Bio-Rad). After washing, TMB substrate solutions (Bio-Rad) were added to detect HRP. Color development was stopped with 1N HCl. Absorption at 450 nm was measured with a microplate spectrophotometer (Molecular Devices). Data were plotted and Kd values derived by non-linear regression with the assumption of single-site binding (GraphPad Prism).
as §2

In a further test the target is T4, RAP d3 K256A, K270E (human, UniProt P30533 235-353).
T4 construct: range 201-319 (mature RAP numbering); Forward mutant of m1; same construct; also called RAP K256A, K270E; not shown: N-terminal hexahistidine and S-peptide tags of pET30(+)a
T4 sequence (looked up): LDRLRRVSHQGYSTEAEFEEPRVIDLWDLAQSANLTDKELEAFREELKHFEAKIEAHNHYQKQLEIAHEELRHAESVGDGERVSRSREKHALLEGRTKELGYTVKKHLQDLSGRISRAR
Described as above. Here is the method:
as §3, §2

B1: LRP2 CR89 (receptor)
chain: not shown
notes: domain: CR89; Limits of the fragment are set only by the primers LRP2CR8F and LRP2CR9R; also called YVWR; L2 CR89; not shown: N-terminal hexahistidine and S-peptide tags of pET30(+)a
Consider B1, for which the dissociation constant Kd in test [1] stood at 114 nM; in the test with MegaRAP1 d3 [2], 38 nM; in the test with MegaRAP1 d3 [3], 38 nM. Further, the binding result with RAP d3 H249Y is given as “no binding (tested: 100 nM)”; in the test with RAP d3 K256A, K270E it was “no binding (tested: 100 nM)”.
